T1: endothelial monocyte activating polypeptide II (EMAP II) (UniProt Q12904 147-312, limits assumed)
T1 construct: also called EMAP II antigen; EMAP II protein
T1 sequence (looked up): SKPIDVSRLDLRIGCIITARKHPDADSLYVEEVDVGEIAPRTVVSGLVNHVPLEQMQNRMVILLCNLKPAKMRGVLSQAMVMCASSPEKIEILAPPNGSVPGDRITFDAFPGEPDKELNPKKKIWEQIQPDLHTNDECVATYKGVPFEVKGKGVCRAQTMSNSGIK


How the values were obtained:
[1] = molecular target: T1, endothelial monocyte activating …; assay: SPR (Reichert SR7500DC), EMAP II protein fixed to a PEG chip (ligand printed on the sheet as hAIMP1), antibody as analyte at 0-40 nM
Method: (§1) A surface plasmon resonance (SPR) method was used to further compare the antigen-binding abilities between BAP015-hum03 and BAP072-EMAP II-1. Reichert SR7500DC system (Reichert Technologies, Depew, N.Y.) was used for SPR, and Scrubber2 software was used for data collection. 2.5 μg of EMAP II protein was fixed to PEG chip (Reichert Technologies), after which BAP015-hum03 and BAP072-EMAP II-1 antibodies were flowed thereinto to compare the binding abilities therebetween.

[2] = molecular target: T1, endothelial monocyte activating …; assay: SPR, Reichert SR7500DC, EMAP II fixed to PEG chip, antibody flowed
Method: as §1

[3] = molecular target: T1, endothelial monocyte activating …; assay: ELISA, EMAP II coated at 1 ug/ml, anti-IgG-HRP detection, absorbance at 450 nm
Method: (§2) Each well of a 96-well plate was coated with 100 μl of EMAP II antigens at a concentration of 1 μg/ml, and incubated at 37° C. for 2 hours. The coated antigens were blocked with 5% BSA and washed with washing buffer solution. […] The resulting ones were washed 3 times with washing buffer solution, then treated with anti-IgG-HRP antibodies, and then incubated for 1 hour. Then, the resulting ones were washed 3 times with washing buffer solution, and treated with a substrate for 30 minutes at room temperature. Color development was performed, after which stop solution was inserted thereinto, such that absorbance was measured at a wavelength of 450 nm to test an antigen-binding ability of the antibodies.

[4] = molecular target: T1, endothelial monocyte activating …; assay: ELISA, plate coated with EMAP II antigen (1 µg/ml), detection with anti-IgG-HRP, OD 450 nm
Method: as §2

| Binder | koff [1] | kon [1] | Kd [2] | concentration of antibodies to reach O.D 2.5 [3] | EC50 (read off the curve) [4] | fold antigen-binding ability against the other antibodies (BAP015-hum03, BAP072-EMAP II-2, II-3, II-4) [3] | fold antigen-binding ability against BAP015-hum03 [2] |
| --- | --- | --- | --- | --- | --- | --- | --- |
| BAP015-hum03 antibody (antibody, V domains shown, The printed variable regions end at FGQG (light) and WGQG (heavy), so they seem to stop short of the end of framework 4; also called anti-EMAP II parent antibody; control group) VH: EVQLVQSGAEVKKPGATVKISCKVSGYTFTSYTMHWVRQAPGQGLEWMGYINPSSGFTNYNQKFKDRVTISADKSISTAYLQWSSLKASDTAMYYCASRFAYWGQG VL: AIQLTQSPSSLSASVGDRVTITCKASQDVSTAVAWYQQKPGKAPKLLIYSASYRYTGVPSRFSGSGSGTDFTFTISRLEPEDFAVYYCQQHYSIPYTFGQG | 5.38e-05 s⁻¹ | 75900 M⁻¹ s⁻¹ | 0.709 nM | – | – | – | – |
| BAP072-EMAP II-2 antibody (antibody, V domains shown, also called BAP072-EMAP 11-2) VH: EVQLVQSGAEVKKPGATVKISCKVSGYTFTSYTMHWVRQAPGQGLEWMGYTNPSSGFTNYTQKFKDRVHISADKSISTAYLQWSSLKASDTAWYYCASRFAYWGQG VL: AIQLTQSPSSLSASVGDRVTITCKASQDVSTAVAWYQQKPGKAPKLLIYSASYRYWGVPSRFSGSGSGTDFTFTISRLEPEDFAVYYCQQHYSIPYTFGQG | – | – | – | ≥ 100 ng/mL | – | – | – |
| BAP072-EMAP II-3 antibody (antibody, V domains shown, also called BAP072-EMAP 11-3) VH: EVQLVQSGAEVKKPGATVKISCKVSGYTFTSYTMHWVRQAPGQGLEWMGYINPRSGFTNYRQKFKHRVTISADKSISTAYLQWSSLKASDTAMYYCFSRFAYWGQG VL: AIQLTQSPSSLSASVGDRVTITCKASQDVSTAVAWYQQKPGKAPKLLIYSASYGYTGVPSRFSGSGSGTDFTFTISRLEPEDFAVYYCQQHYSIPYTFGQG | – | – | – | ≥ 100 ng/mL | – | – | – |
| BAP072-EMAP II-4 antibody (antibody, V domains shown) VH: EVQLVQSGAEVKKPGATVKISCKVSGYTFTSYTMHWVRQAPGQGLEWMGYTNPSSGFTNYTQKFKDRVHISADKSISTAYLQWSSLKASDTAWYYCASRFAYWGQG VL: AIQLTQSPSSLSASVGDRVTITCKASQDVSTAVAWYQQKPGKAPKLLIYSASYGYTGVPSRFSGSGSGTDFTFTISRLEPEDFAVYYCQQHYSIPYTFGQG | – | – | – | ≥ 100 ng/mL | – | – | – |
| BAP072-EMAP II-1 antibody (antibody, V domains shown) VH: EVQLVQSGAEVKKPGATVKISCKVSGYTFTSYTMHWVRQAPGQGLEWMGYINPRSGFTNYRQKFKHRVTISADKSISTAYLQWSSLKASDTAMYYCFSRFAYWGQG VL: AIQLTQSPSSLSASVGDRVTITCKASQDVSTAVAWYQQKPGKAPKLLIYSASYRYWGVPSRFSGSGSGTDFTFTISRLEPEDFAVYYCQQHYSIPYTFGQG | 1.7e-06 s⁻¹ | 27000 M⁻¹ s⁻¹ | 0.063 nM | ≤ 10 ng/mL | ~7 ng/mL | ~10 fold | ~10 fold |

— patent US20200040071A1 (HUB BIOTECH, published 2020)
